Test results as given in patent US9370555B2, “Surfactant protein D for the treatment of disorders associated with lung injury” (priority 1998, dated 2016).
“Also recorded” adds a separate entry of the source.

Key:
[1] = test system: premature lambs; assay: Lung function and morphology in ventilated premature lambs; assay type: in vivo, sheep
[2] = Ultrastructure of surfactant mixtures (electron micrographs); assay type: physicochemical; details: SURVANTA mixed with buffer or rhSP-D
Protocol: (§1) Surface tension was measured by captive bubble surfactometer (Schoel M, et al. The captive bubble method for the evaluation of pulmonary surfactant: surface tension, area, and volume calculations. Biochim Biophys Acta 1994; 1200:281-290) on 3 μL of samples containing 15 μg/μL […]® and 2% rhSP-D or buffer in the presence or absence of surfactant inhibitor (21 μg/μL plasma protein) (Ikegami M, et al. Characteristics of surfactant from SP-A deficient mice. Am J Physiol Lung Cell Mol Physiol 1998; 275:L247-L25). This amount of plasma protein relative to […]® was 30% lower than the concentration that is known to inhibit the activity of […]® in the ventilated premature newborn lamb lung in vivo (Wada K, et al. Tidal volume effects on surfactant treatment responses with the initiation of ventilation in preterm lambs. J Appl Physiol 1997; 83:1054-1061). The influence of rhSP-D on the ultrastructure of […]® was studied as previously described (Schmiedl A, et al. Influence of plasma and inflammatory proteins on the ultrastructure of exogenous surfactant. J Electron Microsc (Tokyo) 2004; 53:407-416).

[3] = Surface tension by captive bubble surfactometer; assay type: physicochemical; details: 15 μg/μL SURVANTA with 2% rhSP-D or buffer
Protocol: as §1

[4] = test system: premature lambs; assay: Pulmonary inflammation in ventilated premature lambs (BALF cells, NE activity, cytokine mRNA and protein, flow cytometry); assay type: in vivo, sheep
Protocol: A five hour study period was chosen to detect changes in proinflammatory cytokine mRNAs induced by initial ventilation (Naik A S, et al. Effects of ventilation with different positive end-expiratory pressures on cytokine expression in the preterm lamb lung. Am J Respir Crit Care Med 2001; 164:494-498). After five hours, lambs were ventilated with FiO2=1 for five minutes, then given 100 mg pentobarbital intravascularly, after which the endotracheal tube was clamped to permit oxygen absorption atelectasis (Ikegami M, et al. Intratracheal recombinant surfactant protein D prevents endotoxin shock in the newborn preterm lamb. Am J Respir Crit Care Med 2006; 173:1342-1347; Ikegami M, Jobe A. Postnatal lung inflammation increased by ventilation of preterm lambs exposed antenatally to E. coli endotoxin. Pediatr Res 2002; 52:356-362). After the thorax was opened, the deflation limb of pressure-volume curve was measured (Kramer B W, et al. Surfactant protein A recruits neutrophils into the lungs of ventilated preterm lambs. Am J Respir Crit Care Med 2001; 163:158-165; Ikegami M, et al. Intratracheal recombinant surfactant protein D prevents endotoxin shock in the newborn preterm lamb. Am J Respir Crit Care Med 2006; 173:1342-1347). Lung tissue of the right lower lobe was frozen in liquid nitrogen for RNA isolation and measurement of neutrophil elastase (NE) activity (Lowry O H, et al. Protein measurement with the Folin phenol reagent. J Biol Chem 1951; 193:265-275; Watterberg K L, et al. Secretory leukocyte protease inhibitor and lung inflammation in developing bronchopulmonary dysplasia. J Pediatr 1994; 125:264-269). NE is a potent serine proteinase, responsible for tissue destruction in the adult lung with emphysema (Shapiro S D, et al. Neutrophil elastase contributes to cigarette smoke-induced emphysema in mice. Am J Pathol 2003; 163:2329-2335). In the preterm newborn lung, increased NE activity affects lung remodeling and increases alveolar epithelial apoptosis and the development of BPD (Watterberg K L, et al. Secretory leukocyte protease inhibitor and lung inflammation in developing bronchopulmonary dysplasia. J Pediatr 1994; 125:264-269; Yasumatsu R, et al. SERPINB1 upregulation is associated with in vivo complex formation with neutrophil elastase and cathepsin G in a baboon model of bronchopulmonary dysplasia. Am J Physiol Lung Cell Mol Physiol 2006; 291:L619-L627). NE activity was assessed by a spectrophotometric assay using a chromogenic substrate specific for NE, N-methoxy-succinyl-Ala-Ala-Pro-Val pNA (Yasumatsu R, et al. SERPINB1 upregulation is associated with in vivo complex formation with neutrophil elastase and cathepsin G in a baboon model of bronchopulmonary dysplasia. Am J Physiol Lung Cell Mol Physiol 2006; 291:L619-L627).
; Lung tissue of the right middle lobe was homogenized in 0.9% NaCl and supernatant after centrifugation at 1,000×g for 15 minutes and frozen for ELISA of proinflammatory cytokine proteins (Kramer B W, et al. Surfactant protein A recruits neutrophils into the lungs of ventilated preterm lambs. Am J Respir Crit Care Med 2001; 163:158-165; Ikegami M, et al. Intratracheal recombinant surfactant protein D prevents endotoxin shock in the newborn preterm lamb. Am J Respir Crit Care Med 2006; 173:1342-1347). BALF was recovered from the left lung (Ikegami M, et al. Whitsett J A. Intratracheal recombinant surfactant protein D prevents endotoxin shock in the newborn preterm lamb. Am J Respir Crit Care Med 2006; 173:1342-1347) for further analyses. Total proteins were analyzed (Lowry O H, et al. Protein measurement with the Folin phenol reagent. J Biol Chem 1951; 193:265-275) in the supernatant of BALF after 10 minutes of centrifugation at 284×g. The right upper lobe was inflation-fixed at 30 cm H2O for morphology (Ikegami M, et al. Surfactant protein-D regulates the postnatal maturation of pulmonary surfactant lipid pool sizes. J Appl Physiol 2009; 106:1545-1552). […]

[5] = CD45-positive cells from BALF, flow cytometry
[6] = premature lambs, five hours of ventilation, +rhSP-D vs control
[7] = premature lambs, mean levels decreased by rhSP-D

B1: rhSP-D: recombinant human surfactant protein D, given mixed with SURVANTA to premature lambs (protein, UniProt P35247 21-375, looked up)
Pulmonary …: AEMKTYSHRTMPSACTLVMCSSVESGLPGRDGRDGREGPRGEKGDPGLPGAAGQAGMPGQAGPVGPKGDNGSVGEPGPKGDTGPSGPPGPPGVPGPAGREGPLGKQGNIGPQGKPGPKGEAGPKGEVGAPGMQGSAGARGLAGPKGERGVPGERGVPGNTGAAGSAGAMGPQGSPGARGPPGLKGDKGIPGDKGAKGESGLPDVASLRQQVEALQGQVQHLQAAFSQYKKVELFPNGQSVGEKIFKTAGFVKPFTEAQLLCTQAGGQLASPRSAAENAALQQLVVAKNEAAFLSMTDSKTEGKFTYPTGESLVYSNWAPGEPNDDGGSEDCVEIFTNGKWNDRACGEKRLVVCEF
For B1, the “mean PIP required to regulate VT at 8 to 9 ml/kg” value ([1]; premature lambs after surfactant at 20 minutes of age, same for controls) was 27 cm H2O, the Po2/Fio2 ([1]; premature lambs, 7 mg rhSP-D mixed with SURVANTA 100 mg/kg vs SURVANTA+buffer control, P<0.01) was “higher” and the alveolar fluid ([1]; premature lambs, +rhSP-D vs control) was “More fluid was noted in alveoli of the control lambs; also recorded: More alveolar fluid was observed in control lambs”. The “modified ventilation index (MVI)” value ([1]; premature lambs, +rhSP-D vs control, after 240 minutes, not statistically significant) was “tends to be better (lower)”, the “deflation limb of pressure-volume curves” value ([1]; premature lambs, +rhSP-D vs control, after five hours) was “not different” and the ultrastructure of surfactant [2] was “causing the formation of lipid aggregates and multilayers; also recorded: from simple lipid layers to the mixture of multiple lipid layers and lipid aggregates”. For the same molecule, the minimum surface tension ([3]; absence of plasma protein) was “low”, the minimum surface tension ([3]; presence of surfactant inhibitor (21 μg/μL plasma protein)) was “remaining low; also recorded: low minimum surface tension in the presence of plasma protein” and the “expression of CD11b” value [4, 5] was “did not influence expression”. The “expression of CD44” value [4, 5] was “did not influence expression”, the “proteins in BALF” value ([4]; premature lambs, +rhSP-D group, control group 60±7) was 57 ± 11 mg/kg and the lung inflammation ([4]; premature lambs, five hours of ventilation) was “decreased in all the lambs treated with rhSP-D”. For the same molecule, the “neutrophils in BALF” value [4, 6] was “significantly decreased; also recorded: suppressed”, the “total inflammatory cell numbers in BALF” value [4, 6] was “significantly decreased; also recorded: suppressed” and the “IL-1β protein in the lung” value ([4]; premature lambs, ELISA) was “not significantly influenced”. For the same molecule, the “IL-8 protein in lung homogenates” value ([4]; premature lambs, ELISA, +rhSP-D vs control) was “significantly decreased”, the “IL-1β mRNA in the lung” value ([4]; premature lambs, RT-PCR) was “not significantly influenced; also recorded: generally lower” and the “IL-8 mRNA in the lung” value ([4]; premature lambs, RT-PCR, +rhSP-D vs control) was “significantly decreased; also recorded: significantly suppressed”. The “TNF-α mRNA expression” value ([4]; premature lambs, data not shown) was “similarly present at low levels in both groups”, the “KC mRNA in the lung” value [4, 7] was “not significantly different; also recorded: generally lower” and the “MCP1 mRNA in the lung” value [4, 7] was “not significantly different; also recorded: generally lower”. For the same molecule, the “IL-6 mRNA expression in the lung” value ([4]; premature lambs, mean, P=0.06, not statistically significant) was “generally lower”, the “IL-6 protein in the lung” value ([4]; premature lambs, mean, P=0.1, not statistically significant) was “lower” and the “neutrophil elastase (NE) activity in the lung” value ([4]; premature lambs, rhSP-D added to SURVANTA vs control, P<0.05) was “decreased NE activity”.
